According to US20230346967A1 (published 2023):

T1: recombinant human TfR2 (human, UniProt Q9UP52 105-801, limits assumed)
T1 construct: also called hTfR2; transferrin receptor 2
T1 sequence (looked up): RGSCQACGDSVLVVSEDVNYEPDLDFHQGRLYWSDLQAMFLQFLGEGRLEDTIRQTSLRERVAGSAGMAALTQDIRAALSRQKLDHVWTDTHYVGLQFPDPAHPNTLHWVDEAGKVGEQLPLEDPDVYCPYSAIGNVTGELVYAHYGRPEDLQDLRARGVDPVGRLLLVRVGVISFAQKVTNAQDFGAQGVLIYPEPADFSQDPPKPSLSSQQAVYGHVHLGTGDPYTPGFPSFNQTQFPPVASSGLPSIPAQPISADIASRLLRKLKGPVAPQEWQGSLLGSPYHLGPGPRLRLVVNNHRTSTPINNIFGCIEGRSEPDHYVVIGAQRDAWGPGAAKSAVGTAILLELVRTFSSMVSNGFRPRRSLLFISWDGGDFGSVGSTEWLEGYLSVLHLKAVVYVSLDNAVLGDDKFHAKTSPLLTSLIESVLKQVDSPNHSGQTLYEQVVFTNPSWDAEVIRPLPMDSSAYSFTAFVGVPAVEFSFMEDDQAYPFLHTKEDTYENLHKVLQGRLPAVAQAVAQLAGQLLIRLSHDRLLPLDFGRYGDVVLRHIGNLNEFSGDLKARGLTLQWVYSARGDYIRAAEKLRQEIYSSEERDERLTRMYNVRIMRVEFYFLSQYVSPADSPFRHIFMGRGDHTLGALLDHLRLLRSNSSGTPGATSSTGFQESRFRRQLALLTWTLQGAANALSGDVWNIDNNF


Legend:
recombinant mouse TfR1 = recombinant mouse TfR1 (mouse, UniProt Q62351 89-763); test: ELISA, plates precoated with recombinant TfR1
Chain of recombinant mouse TfR1 (Q62351 89-763 limits assumed): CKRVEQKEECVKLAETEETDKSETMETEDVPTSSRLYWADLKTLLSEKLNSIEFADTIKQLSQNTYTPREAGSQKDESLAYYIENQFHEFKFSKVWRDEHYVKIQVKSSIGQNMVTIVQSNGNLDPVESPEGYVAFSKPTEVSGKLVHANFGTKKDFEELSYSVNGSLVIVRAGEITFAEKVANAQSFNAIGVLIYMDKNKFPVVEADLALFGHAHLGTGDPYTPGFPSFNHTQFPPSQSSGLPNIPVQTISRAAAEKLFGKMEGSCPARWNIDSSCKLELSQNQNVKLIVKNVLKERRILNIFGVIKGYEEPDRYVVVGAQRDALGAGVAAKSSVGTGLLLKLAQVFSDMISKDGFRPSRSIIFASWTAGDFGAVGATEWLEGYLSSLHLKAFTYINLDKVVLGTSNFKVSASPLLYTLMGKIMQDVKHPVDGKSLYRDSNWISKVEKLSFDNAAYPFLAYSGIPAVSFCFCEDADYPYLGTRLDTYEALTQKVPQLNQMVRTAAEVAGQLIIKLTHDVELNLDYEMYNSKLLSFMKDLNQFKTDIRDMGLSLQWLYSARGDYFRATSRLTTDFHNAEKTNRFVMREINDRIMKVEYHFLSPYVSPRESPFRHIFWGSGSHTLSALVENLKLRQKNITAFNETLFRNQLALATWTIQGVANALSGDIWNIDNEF
Method: (§1) Serial dilutions of the Fab were added to plates precoated with recombinant human, cynomolgus monkey, mouse, or rat TfR1. After a short incubation, binding of the Fab was quantified by addition of a fluorescently tagged anti-(H+L) IgG secondary antibody and measurement of fluorescence intensity at 495 nm excitation and 520 nm emission.

recombinant rat TfR1 = recombinant rat TfR1 (rat, UniProt Q99376 89-761, limits assumed); test: ELISA, plates precoated with recombinant TfR1
Chain of recombinant rat TfR1 (Q99376 89-761 limits assumed): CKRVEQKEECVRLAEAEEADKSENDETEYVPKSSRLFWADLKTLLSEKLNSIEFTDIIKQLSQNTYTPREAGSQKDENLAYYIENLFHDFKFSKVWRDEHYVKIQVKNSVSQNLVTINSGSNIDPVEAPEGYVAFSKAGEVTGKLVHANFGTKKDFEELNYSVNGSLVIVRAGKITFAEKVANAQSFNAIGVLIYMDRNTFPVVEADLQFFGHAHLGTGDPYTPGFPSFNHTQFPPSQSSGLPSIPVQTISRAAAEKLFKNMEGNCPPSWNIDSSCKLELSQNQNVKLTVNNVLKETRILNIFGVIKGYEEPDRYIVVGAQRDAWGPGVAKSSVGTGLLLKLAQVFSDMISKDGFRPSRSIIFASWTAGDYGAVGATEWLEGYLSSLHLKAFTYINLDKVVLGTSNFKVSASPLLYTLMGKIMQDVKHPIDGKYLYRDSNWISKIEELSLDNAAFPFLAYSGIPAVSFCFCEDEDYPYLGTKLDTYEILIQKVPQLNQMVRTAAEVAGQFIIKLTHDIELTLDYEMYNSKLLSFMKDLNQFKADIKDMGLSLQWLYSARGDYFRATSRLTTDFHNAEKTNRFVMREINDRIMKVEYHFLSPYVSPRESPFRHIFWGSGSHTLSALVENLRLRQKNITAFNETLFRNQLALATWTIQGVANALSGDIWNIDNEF
Method: as §1

recombinant human TfR2 = biological target: T1, recombinant human TfR2; test: SPR
recombinant human TfR1 = biological target: T2, recombinant human TfR1 (human, UniProt P02786 89-760); test: printed: DMPK oligo conjugate binding to hTfR1
T2 construct: also called hTfR1; huTfR1
T2 sequence (P02786 89-760 limits assumed): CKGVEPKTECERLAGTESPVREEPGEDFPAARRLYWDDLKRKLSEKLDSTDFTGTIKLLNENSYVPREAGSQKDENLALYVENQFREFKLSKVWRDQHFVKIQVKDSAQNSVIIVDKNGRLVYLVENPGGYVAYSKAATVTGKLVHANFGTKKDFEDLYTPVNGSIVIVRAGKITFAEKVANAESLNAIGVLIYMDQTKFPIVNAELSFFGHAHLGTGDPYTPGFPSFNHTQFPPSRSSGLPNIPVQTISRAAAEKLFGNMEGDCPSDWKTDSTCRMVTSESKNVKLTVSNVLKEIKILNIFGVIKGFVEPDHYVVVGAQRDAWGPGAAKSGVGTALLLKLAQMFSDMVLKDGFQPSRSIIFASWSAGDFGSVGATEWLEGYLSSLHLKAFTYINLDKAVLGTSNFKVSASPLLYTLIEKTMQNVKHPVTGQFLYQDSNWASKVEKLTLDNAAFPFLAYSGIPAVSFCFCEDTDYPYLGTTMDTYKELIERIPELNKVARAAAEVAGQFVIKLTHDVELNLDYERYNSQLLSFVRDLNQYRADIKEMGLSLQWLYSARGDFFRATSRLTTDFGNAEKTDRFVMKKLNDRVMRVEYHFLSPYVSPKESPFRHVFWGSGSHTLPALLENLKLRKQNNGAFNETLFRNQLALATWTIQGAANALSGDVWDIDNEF

Binder | binding result (recombinant mouse TfR1) | binding result (recombinant rat TfR1) | binding result (recombinant human TfR2) | EC50 (recombinant human TfR1) [nM]
humanized anti-TfR Fab 3M12 VH4/Vκ3 (Fab, V domains shown, also called 3M12 (VH4/Vk3); 3M12 VH4/VK3) VH: QVQLQESGPGLVKPSQTLSLTCTVTGYSITSGYYWNWIRQPPGKGLEWIGYITFDGANNYNPSLKNRVSISRDTSKNQFSLKLSSVTAEDTATYYCTRSSYDYDVLDYWGQGTTVTVSS VL: DIQMTQSPSSLSASVGDRVTITCRASQDISNFLNWYQQKPGQPVKLLIYYTSRLHSGVPSRFSGSGSGTDFTLTISSLQPEDFATYYCQQGHTLPYTFGQGTKLEIKR | no binding | no binding | no binding | 
humanized anti-TfR Fab 3A4 VH3/Vκ4 conjugated to DMPK-targeting oligonucleotide ASO300 (Fab, V domains shown, DMPK-targeting oligonucleotide ASO300 conjugated to the Fab; chain and residue not stated for this example, The oligonucleotide may sit on either chain; also called 3A4 (VH3/Vk4) conjugate; DMPK oligo conjugate) VH: EVQLVQSGSELKKPGASVKVSCTASGFNIKDDYMYWVRQPPGKGLEWIGWIDPENGDTEYASKFQDRVTVTADTSTNTAYMELSSLRSEDTAVYYCTLWLRRGLDYWGQGTLVTVSS VL: DIVMTQSPLSLPVTPGEPASISCRSSKSLLHSNGYTYLFWFQQRPGQSPRLLIYRMSNLASGVPDRFSGSGSGTDFTLKISRVEAEDVGVYYCMQHLEYPFTFGGGTKVEIKR |  |  |  | 2.84
